# In US20040176301A1 (CYCLACEL, published 2004):
# Numbered stars: 1 amine (or outer) side, 2 acyl side, 3 side chain; on linkers, the order of the positions; unused ones are H or OH. Square brackets hold non-standard residues; d marks the D form. Ends that are not written are not given here. Dhp = dehydrophenylalanine, Z isomer, O=C(/C(=C/c1ccccc1)N[*:1])[*:2]; Phe(3-F) = N[C@@H](Cc1cccc(F)c1)C(=O)O; Phe(4-F) = N[C@@H](Cc1ccc(F)cc1)C(=O)O; 1Nal = N[C@@H](Cc1cccc2ccccc12)C(=O)O; 2Nal = N[C@@H](Cc1ccc2ccccc2c1)C(=O)O; hPhe = N[C@@H](CCc1ccccc1)C(=O)O; Tic = O=C(O)[C@@H]1Cc2ccccc2CN1; Cha = N[C@@H](CC1CCCCC1)C(=O)O; Phe(ol) = N[C@H](CO)Cc1ccccc1; Psa = O-acetylphenylserine; dPse = D-phenylserine
# B1: H-His-Ala-Lys-Arg-Arg-Leu-Ile-Cha-NH2 (peptide)
# peptide: H-HAKRRLI[Cha]-NH2
# SMILES: CC[C@H](C)[C@H](NC(=O)[C@H](CC(C)C)NC(=O)[C@H](CCCNC(=N)N)NC(=O)[C@H](CCCNC(=N)N)NC(=O)[C@H](CCCCN)NC(=O)[C@H](C)NC(=O)[C@@H](N)Cc1c[nH]cn1)C(=O)N[C@@H](CC1CCCCC1)C(N)=O
# B2: H-His-Ala-Lys-Arg-Arg-Leu-Ile-pFPhe-NH2 (peptide)
# peptide: H-HAKRRLI[Phe(4-F)]-NH2
# SMILES: CC[C@H](C)[C@H](NC(=O)[C@H](CC(C)C)NC(=O)[C@H](CCCNC(=N)N)NC(=O)[C@H](CCCNC(=N)N)NC(=O)[C@H](CCCCN)NC(=O)[C@H](C)NC(=O)[C@@H](N)Cc1c[nH]cn1)C(=O)N[C@@H](Cc1ccc(F)cc1)C(N)=O
# B3: H-His-Ala-Lys-Arg-Arg-Leu-Ile-Tic-NH2 (peptide)
# peptide: H-HAKRRLI[Tic]-NH2
# SMILES: CC[C@H](C)[C@H](NC(=O)[C@H](CC(C)C)NC(=O)[C@H](CCCNC(=N)N)NC(=O)[C@H](CCCNC(=N)N)NC(=O)[C@H](CCCCN)NC(=O)[C@H](C)NC(=O)[C@@H](N)Cc1c[nH]cn1)C(=O)N1Cc2ccccc2C[C@H]1C(N)=O
# B4: H-His-Ala-Lys-Arg-Arg-Leu-Ile-Hof-NH2 (peptide)
# peptide: H-HAKRRLI[hPhe]-NH2
# SMILES: CC[C@H](C)[C@H](NC(=O)[C@H](CC(C)C)NC(=O)[C@H](CCCNC(=N)N)NC(=O)[C@H](CCCNC(=N)N)NC(=O)[C@H](CCCCN)NC(=O)[C@H](C)NC(=O)[C@@H](N)Cc1c[nH]cn1)C(=O)N[C@@H](CCc1ccccc1)C(N)=O
# B5: H-His-Ala-Lys-Arg-Arg-Leu-Ile-2Nap-NH2 (peptide)
# peptide: H-HAKRRLI[2Nal]-NH2
# SMILES: CC[C@H](C)[C@H](NC(=O)[C@H](CC(C)C)NC(=O)[C@H](CCCNC(=N)N)NC(=O)[C@H](CCCNC(=N)N)NC(=O)[C@H](CCCCN)NC(=O)[C@H](C)NC(=O)[C@@H](N)Cc1c[nH]cn1)C(=O)N[C@@H](Cc1ccc2ccccc2c1)C(N)=O
# B6: H-His-Ala-Lys-Arg-Arg-Leu-Ile-mFPhe-NH2 (peptide)
# peptide: H-HAKRRLI[Phe(3-F)]-NH2
# SMILES: CC[C@H](C)[C@H](NC(=O)[C@H](CC(C)C)NC(=O)[C@H](CCCNC(=N)N)NC(=O)[C@H](CCCNC(=N)N)NC(=O)[C@H](CCCCN)NC(=O)[C@H](C)NC(=O)[C@@H](N)Cc1c[nH]cn1)C(=O)N[C@@H](Cc1cccc(F)c1)C(N)=O
# B7: H-His-Ala-Lys-Arg-Arg-Leu-Ile-1Nap-NH2 (peptide)
# peptide: H-HAKRRLI[1Nal]-NH2
# SMILES: CC[C@H](C)[C@H](NC(=O)[C@H](CC(C)C)NC(=O)[C@H](CCCNC(=N)N)NC(=O)[C@H](CCCNC(=N)N)NC(=O)[C@H](CCCCN)NC(=O)[C@H](C)NC(=O)[C@@H](N)Cc1c[nH]cn1)C(=O)N[C@@H](Cc1cccc2ccccc12)C(N)=O
# B8: H-His-Ala-Lys-Arg-Arg-Leu-Ile-Dhp-OH (peptide)
# peptide: H-HAKRRLI[Dhp]-OH
# SMILES: CC[C@H](C)[C@H](NC(=O)[C@H](CC(C)C)NC(=O)[C@H](CCCNC(=N)N)NC(=O)[C@H](CCCNC(=N)N)NC(=O)[C@H](CCCCN)NC(=O)[C@H](C)NC(=O)[C@@H](N)Cc1c[nH]cn1)C(=O)N/C(=C\c1ccccc1)C(=O)O
# Molecular target: T1, CDK2/cyclin A (UniProt P24941 1-298; P20248 1-432)
# Test: cell-based or functional assay
row,Binder,"Relative activity, Kinase Inhibition (CDK2/cyclin A kinase assay, pRb substrate, [ATP] = 100 µM)"
1,B1,< 0.1 relative to H-His-Ala-Lys-Arg-Arg-Leu-Ile-Phe-NH2 (=1)
2,B2,1 relative to H-His-Ala-Lys-Arg-Arg-Leu-Ile-Phe-NH2 (=1)
3,H-HAKRRLIK-NH2 [H-His-Ala-Lys-Arg-Arg-Leu-Ile-Lys-NH2],< 0.1 relative to H-His-Ala-Lys-Arg-Arg-Leu-Ile-Phe-NH2 (=1)
4,B3,0.3 relative to H-His-Ala-Lys-Arg-Arg-Leu-Ile-Phe-NH2 (=1)
5,H-HAKRRLIW-NH2 [H-His-Ala-Lys-Arg-Arg-Leu-Ile-Trp-NH2],0.3 relative to H-His-Ala-Lys-Arg-Arg-Leu-Ile-Phe-NH2 (=1)
6,B4,< 0.1 relative to H-His-Ala-Lys-Arg-Arg-Leu-Ile-Phe-NH2 (=1)
7,B5,1.2 relative to H-His-Ala-Lys-Arg-Arg-Leu-Ile-Phe-NH2 (=1)
8,B6,0.8 relative to H-His-Ala-Lys-Arg-Arg-Leu-Ile-Phe-NH2 (=1)
9,H-HAKRRLIY-NH2 [H-His-Ala-Lys-Arg-Arg-Leu-Ile-Tyr-NH2],0.3 relative to H-His-Ala-Lys-Arg-Arg-Leu-Ile-Phe-NH2 (=1)
10,B7,0.2 relative to H-His-Ala-Lys-Arg-Arg-Leu-Ile-Phe-NH2 (=1)

# Molecular target: T2, CDK4/Cyclin D1 complex (UniProt P11802 1-303; P24385 1-295)
# Test: cell-based or functional assay
# T2 sequence (P11802 other isoform, or with tags, fused parts or gaps, chain 1 of 2): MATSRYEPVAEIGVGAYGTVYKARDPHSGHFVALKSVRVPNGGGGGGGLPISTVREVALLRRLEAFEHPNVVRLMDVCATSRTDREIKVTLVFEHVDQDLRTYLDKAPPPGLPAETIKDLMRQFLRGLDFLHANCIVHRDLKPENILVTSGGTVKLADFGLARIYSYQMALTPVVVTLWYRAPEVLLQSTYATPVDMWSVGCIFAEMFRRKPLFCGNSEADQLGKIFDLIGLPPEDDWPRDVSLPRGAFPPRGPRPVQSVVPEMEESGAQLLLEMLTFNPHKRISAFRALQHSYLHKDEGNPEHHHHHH
# T2 sequence (P24385 whole entry, chain 2 of 2): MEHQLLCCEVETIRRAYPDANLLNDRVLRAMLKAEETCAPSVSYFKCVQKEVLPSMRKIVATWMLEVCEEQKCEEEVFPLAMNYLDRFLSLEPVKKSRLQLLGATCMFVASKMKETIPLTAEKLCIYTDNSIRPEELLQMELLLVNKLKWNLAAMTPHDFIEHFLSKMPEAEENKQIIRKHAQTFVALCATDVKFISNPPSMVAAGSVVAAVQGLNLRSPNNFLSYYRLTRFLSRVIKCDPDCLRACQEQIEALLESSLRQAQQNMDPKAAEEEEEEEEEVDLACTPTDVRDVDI
row,Binder,"% Inhibition, cyclin D1/CDK4 kinase [%]"
1,HSKRRLIF-NH2 [p21 (152-159) HSKRRLIF-NH2],72

# Molecular target: T3, CDK2/Cyclin E complex (UniProt P24941 1-298; P24864 1-410)
# Test: cell-based or functional assay
Binder,"% Inhibition, cyclin E/CDK2 kinase [%]","IC50, cyclin E/CDK2 kinase, GST-pRb [µM]"
HSKRRLIF-NH2 [p21 (152-159) HSKRRLIF-NH2],80,3.4

# Molecular target: T1, CDK2/cyclin A
# Test: cell-based or functional assay
# Remark: another data set of the same source
row,Binder,"Relative activity, Kinase Inhibition (CDK2/cyclin A kinase assay, pRb substrate, [ATP] = 100 µM)"
1,H-HGKRRLIF-NH2 [H-His-Gly-Lys-Arg-Arg-Leu-Ile-Phe-NH2],0.1 relative to H-His-Ala-Lys-Arg-Arg-Leu-Ile-Phe-NH2 (=1)

# Molecular target: T1, CDK2/cyclin A
# Test: cell-based or functional assay
# Remark: another data set of the same source
row,Binder,"Relative activity, Kinase Inhibition (CDK2/cyclin A kinase assay, pRb substrate, [ATP] = 100 µM)"
1,H-HSKRRLI[dPse]-OH [H-His-Ser-Lys-Arg-Arg-Leu-Ile-D-Pse-OH],< 0.1 relative to H-His-Ala-Lys-Arg-Arg-Leu-Ile-Phe-NH2 (=1)
2,B8,3.3 relative to H-His-Ala-Lys-Arg-Arg-Leu-Ile-Phe-NH2 (=1)
3,H-HAKRRLI[Phe(ol)] [H-His-Ala-Lys-Arg-Arg-Leu-Ile-Pheol],0.6 relative to H-His-Ala-Lys-Arg-Arg-Leu-Ile-Phe-NH2 (=1)
4,H-HSKRRLI[Psa]-OH [H-His-Ser-Lys-Arg-Arg-Leu-Ile-L-Psa-OH],< 0.1 relative to H-His-Ala-Lys-Arg-Arg-Leu-Ile-Phe-NH2 (=1)

# Molecular target: T2, CDK4/Cyclin D1 complex
# Test: cell-based or functional assay
# Remark: another data set of the same source
row,Binder,"% Inhibition, cyclin D1/CDK4 kinase [%]"
1,HSKRRLIF-NH2 [p21 (152-159) HSKRRLIF-NH2],72

# Molecular target: T3, CDK2/Cyclin E complex
# Test: cell-based or functional assay
# Remark: another data set of the same source
Binder,"% Inhibition, cyclin E/CDK2 kinase [%]","IC50, cyclin E/CDK2 kinase [µM]"
HSKRRLIF-NH2 [p21 (152-159) HSKRRLIF-NH2],80,3.4
